Reference: a protein production outcome set (Wang et al. 2014)

Assay: label from the status in PepcDB records

Sequence | protein production
MQDNSVNETKNIVEVGIDSSIEESYLAYSMSVIIGRALPDARDGLKPVHRRILYAMHELGLTSKVAYKKSARIVGDVIGKYHPHGDNAVYDALVRMAQDFSMRLELVDGQGNFGSIDGDNAAAMRYTEARMTKASEEILRDIDKDTIDFVPNYDDTLKEPDILPSRLPNLLVNGANGIAVGMATSIPPHRMDEIIDALVHVLENPNAGLDEILEFVKGPDFPTGGIIYGKAGIIEAYKTGRGRVKVRAKVHVEKTKNKEIIVLDEMPFQTNKAKLVEQISDLAREKQIEGISEVRDESDREGIRVVIELKRDAMSEIVLNHLYKLTTMETTFSIILLAIYNKEPKIFTLLELLHLFLNHRKTIIIRRTIFELEKAKARAHILEGYLIALDNIDEIVRLIKTSQSPEAAKNALMERFTLSEIQSKAILEMRLQRLTGLERDKIKEEYQNLLELIDDLNGILKSEDRLNGVVKTELLEVKEQFSSPRRTEIQESYENIDIEDLIANEPMVVSMSYKGYVKRVDLKAYEKQNRGGKGKLSGSTYEDDFIENFFVANTHDILLFITNKGQLYHLKVYKIPEASRIAMGKAIVNLISLAPDEKIMATLSTKDFSDERSLAFFTKNGVVKRTNLSEFESNRSCGIRAIVLDEGDELVSAKVVDKNAKHLLIASHLGIFIKFPLEEVREIGRTTRGVIGIKLNENDFVVGAVVISDDGNKLLSVSENGLGKQTLAEAYRGQSRGGKGVIGMKLTQKTGNLVGVISVDDENLDLMILTASAKMIRVSIKDIRETGRNASGVKLINTADKVMYVNSCPKEEEPENLETSSAQNLFE | failed
MQDRMLRRVFILAGIALLLWVLYLLKPVVIPFVGAFLIAYLFSPLVEKLSKIGLPRWLSISIVFIGIGVLLTWAMWYVVPLVWQQLMYARDSIPSGIHWVNATFLPWVSHTFNVERMEIDTDQISTVVMEYIQTNYSADSIQTMALRLAQSGLNFIQIGGTIVLIPIISFYFLLDWDRMLNSLRRLIPRPYEESTLRIVYECHSVLGAFVKGQFLVMLLLGIVYAVGLQLIGLEVGLIIGMVAGLASIIPYLGFAVGIIAAVIATVFQFGVDWMQLALVGVVFMIGQAVEGYILQPFLLGDKIGLSPVAVVFAVLAGAQLAGFLGMLIALPVAAVIVVLLRHLREAYEHTQMYAGTATVVSTGNGEHISIETENLDLDIEVKNPQDTDTSIDNDRK | failed
MQEIQRFNKVLKSCVLFGDIILLNSLLWGFELVLGSRFYSGNLTSLYQGMVLLSLCYLVCNIQSGVILHHPVVRPEQIMIRVLRNMVPFILFSICFLSLFHFEFFRSRLFGLFYVALLIILICYRLAFRYFLELYREKGGNVRMVVLVGSHENMQELYHSMTDDPTSGYRVMGYFEDSPSDYYPEEVAYLGQPKEAIEYLERNSGKIAQLYCSLPSVRSAEIVPIINYCENHLVRFFSVPNVRNYLKRRMYFDLLGNVPVLSIRREPLELRENRVLKRFFDIIFSLIFLCTIFPFVYIIIGIAIKISSPGPIFFKQKRSGEDGREFWCYKFRSMRVNAQCDVLQATANDPRKTRIGEFIRKTSIDELPQFINVLMGDMSVVGPRPHMLKHTEEYAQVINKFMVRHFVKPGITGWAQVTGYRGETKELWQMEGRVSRDIWYIEHWTFMLDLYIIYKTVYNAIHGEKEAY | failed
MQEISAYTLIKEKLQAIPNLRHKGILFEKISKQFLQEHDSANEYESIDLWYDWKLRGNERDKGIDIVITTFKQRIHRCAMQIPSK | failed
MQFGVTKESQCHYLTDQEERLVVALPNDLENLNADAYQQLMQYGFRRSHNDVYRPHCRLCSACQSLRVVVPEFRFSKNQKRILKKNDDLTLQIKQQPEAEYSQLFSQFIEQRHADGEMYPPDPDKFWKWIDCDWLTPELLEWRNASNELMIVSVVDRTVDAMSAVYTFFHPDEEKRSPGTFAVLEMIRLAQEREVARLYLGYQIDDCKKMNYKTRFAPYERLVGNHWKKELKSHTLKAQNKD | failed
MQFPSIEDLRARNTMKWTRYGQGVLPLWVAESDFSTCPAVLQAITDAVQREAFGYQPDGSLLSQATAEFYADRYGYQARPEWIFPIPDVVRGLYIAIDHFTPAQSKVIVPTPAYPPFFHLLSATQREGIFIDATGGINLHDVEKGFQAGARSILLCNPYNPLGMVFAPEWLNELCDLAHRYDARVLVDEIHAPLVFDGQHTVAAGVSDTAASVCITITAPSKAWNIAGLKCAQIIFSNPSDAEHWQQLSPVIKDGASTLGLIAAEAAYRYGTDFLNQEVAYLKNNHDFLLHEIPKRIPGAKITPMQATYLMWIDFRDTTIEGSPSEFFIEKAKVAMNDGAWFGEDGTGFCRLNFATSREVLEEAIDRMAKAVSHHT | not failed
MQFYNRQKELKLMELLDQGKPSFFVITGKRRVGKTELIKQFTRNRKALYLFVDSNKSINILMDEFDRLLKEKLDLPDYIKVDEPENFLKFITSYDRDLVIAIDEFQRFQKVYPSFITQLQRYWDMKPDNCRIFLIVSGSSIGMIRKIFIEEQAPLFKRADNILTIKPFTVLETFEMLDGMGIKNPEEKLNLYFLFGGTVYYYRLFEKYQCTGFDDALEKLIFSEFAPLKNEVREILIEEFGKEHSTYYEIISAISQGRCSMSEISDMTHVSSSSLSPYFYDLIDLLGVVEHRIPVMDNPEKSKRGRYFLKDNFFRFYGRFIYPMYSRYMAGNYSPMLEKVRKEWQSYTGKIFEDIVHELLVEKMISDYPELGSWWNRKGDEIDILGVDHRGRKSLVIEVKNKELAENEAREILELTLDKTKLVKGISGQKLKVGIVAQKVKGRKNLEDDGFLVWELEELIPLEHHHHHH | failed
MQGFTAYLVGFAIVAGFAVALGFIFGIFNQIVAQLNTDPNNPMISQEFVDAINLAQSLGGTGLTLAIAALIVGLAMLLIAVIRSYSGV | failed
MQGHHAAARALRRQGRLGEAIARYRAALAATPGAAVLQAEMAECLFAAGQAEAAVKALGQAVRLDPDNATHRGNLAMLLARKGDLAGAIDHARAAVRLAPKDGALRLRLARLLIAAGHPREAEAEALDATRRLPREAASWIALAGARLLDQRPNDAEAPSARALALAPNDAEALSLRTDLLLSLGRLAEAEATARLALKRQPTSLAALVALSKAKTFRPDDPDWPALAALLPSLGERSAEEAVKLHFASAKALEDMGRDDEAFAHYQAGNSLKGRGLPDELPALSAMVDSLERWTPKLRPVGEGDPLPVFIVGMPRSGTTLVEQILDRHRAIHGAGEILLFGERVVANGLGGYSADPQGLDPERLAALGADYRDRLRGLAPRAGRIINKTPGNWLHLGLIAAALPGARIIWCRRDPVDCCLSCFRNLFGQGHAWTTDLGRAGRYYRLQERLTGHWQAVLGDERMTAVDYEALVADPEAEARRLVAHLGLEWDEACLDHTRGGRAVTTLSQVQVRQPITDASVGRGRRFQTHLGPLLTALDGR | failed
MQGQNQQQAYDRGITIFSPDGRLYQVEYAREAVKRGTASIGVRTSDGVVLAVDKRIRSPLMERSSVEKIHKADDHIGIASAGHVADARQLIDFARRQAQVNQLRYGEPVGVETLTKEITDYIQQYTQVGGARPFGVALIIGGIVNGEPRLFETDPSGTPYEWKALAVGADRGDIRDYLEEHYDEGMDLDEGVDLALAALASVNDDELSPEGIGVATVDVETETFGQLTDEEKEAHLAEADLLDTGEDADDEAEDEDATEE | failed
MQGQWGYVAISFIIGIAIAFSSSVIWLTCCLVLNVFFCLYRTPRKTFFYCMIACLSGAMYTTYVQGQNNPLGDSYEATRGVIHNTPLINGDRLSFQVEDQNKNIVQLSYKMKSALEKKQMRQLHAGVSCVFEGERKEPQIARNFHGFNYRDYLYKQNIHFILDATYISECHKTSLSLVQWILLLRQQAISEVAEMFPEQSGAFMNALVFGDRQQMTFEVEEQYQQFGLVHLLAISGSHIVLLMVIVYFILLRSGVTREVATVCLIFCIPLYMILAGASPSVIRASITGVFMLIAFMCSIRLSSLDALSITAICMLIFDPYLVFNIGFQFSFVGSFALLLSTPLLLESGNGVIRNSIYISFISQLVSTPILLYHFGYFSPYSIFLNILYVPFLSLVVLSCSIVILICIPVIPFLAKRLANVLSIGLNLSNDFLSYCENLPFTRLNFGQTSILLVALYCVSIISILMVWERRMAKGILFISAGVFLFISTCHYVYPYFRESGSVTFLDVGQGDAILIRLPYDQEIYLIDTGGTILPNKEEWQRKKHEFSVGNDILIPYLQKEGIKKIDKLIITHGDADHIGAAQQLLSNITVKEVVFGRKEQDAELEKIVKKQALEKKVKIREVREGESWSINGAEFFVLAPTGKESSENNASIVMLAKLGGLTWLFTGDLEEEGEKFLVATYPELRADVLKVAHHGSNTSSTTPFLSVVQPNIAVISVGERNRYGHPHKDVIERFEKRGIEIWRTDKQGAISYVFKGENGTFRSKITYDETHNR | failed
MQHRQLWYRGGLGLALALVVVGYRGSRTVIRAVPRAQLSVDQKMPSTSSVFSASKLTLQDEANNSAPQVSPEAQESSGPDKQSDLTSGSSTSSSGISSGNSSGSTILENAKNNQTSETATTKAAEMVNGTVKMTLDTNGTLHLSGGSFGASLGSATGSWIVKTLTANGYQPTQVSKIVIDGKITATTMTNYSYLFANLPNVTAIDGLANLNLTGVTDISWLFLNCSQLGALDLNSWDVSSVIRMEGTFQNCAKLVTLNVANWNTDSLQYLIDTFNGDSSLTSLPVGKWNTSKVATMMRTFTDCSSLTSLDIANWDTRVVTNMSAIFRGMSKVKSLPIDKWQTGRVVNMQLVFSGDTSLESINVANWDTSRATALDGTFAKLPNIKSLPLDNWNTSNVQTIRSTFYGDTNLTQLPIDNWNVGKVFDFNSTFSGCASLTTAPVANWNTQSATNLGYTFEGMTSLTSLPVDNWQTGTVTNMAGTFSGVSQLKSLPISKWNTKNVQNMAGTFSKMSSVTALPVDNWQTGNVTTMRGIFTKVSQVKNLPVGKWNTAKVVDMGQVFYGNPQLTSLPIENWNTSSATDFSQLFAEDSGLQTLSLGAWNTTKVTNFESVFQNTSLDKLDLTGWNTNSAQTYTNAFSSKLPPKRLLLGPSFNFFKSESWHLPNPSSEAPYIGKWRSLNNKKVYTSADLMTKYDGKTIVGEFEWATGNTITVKYVDAAGKYLAPDTKISGATGDAYHIKPIEIQGYVPDQPDGVQGNFTDKDETITLMYNPGGLMFVSAPQTINFGQNPITGKSENYGASYDTGLVIQDGRSIGSTWSLNATLSASGFTSKQSGRPLAAVLSYKDQQTGGGSILTPGVARLIVNNHQTVSNQGVNILGQKTALGALSLQVPTDRALTDTYQATVTWTLNQGVPNR | failed
MQIGLEAGLTNQLIDEIDQQPGHLPLLEFALTQLWSKQQNRLLTHQAYQEIGGVEEALANHAEAVYAQLTEADRQRAQQIFIQLVRLGDDTEATRRLTTREEVRLENWDLVTRLASSRLVVTNRNESTAEETVEIVHEALIRSWGRLEQWLIVDGDFLRWREQLRLAIRLWENSGHDQGVLLRGKALIDAQEWQLQRAQELNTNEIRFINKSGELRELEVKQQQRIRKIGISSLVTGLILALGLAGVAWLQGQKARMSETKAISSSAESFLNANLEFDGLIASIRAGRRIKGTDGIDANTRTQITETLQQSINFVREKNRLAEHDGMLESVSFSPDSKFIATASRDKTVKIWSLDGKKQLVVLREEKGEGFNSVAFSPDGTLMATGSWDNTAKIWSREGKRLHTLDGHKEAVLEVAFSPDSQLLATASWDNTVKLWSREGKLLHTLEGHKDKVNSITFSPDGQLIATVGWDNTMKLWNLDGKELRTFRGHQDMIWSVSFSPDGKQIATASGDRTVKLWSLDGKELQTLRGHQNGVNSVTFSPDGKLIATASGDRTVKLWNSKGQELETLYGHTDAVNSVAFSPDGTSIATAGNDKTAKIWKLNSPNSIIVRGHEDEVFDLVFSPNGKYIATASWDKTAKLWSIVGDKLQELRTFNGHQGRVNKLSFSPDGKYIATTSWDKTAKLWNLDGTLQKTLTGHKDTVWSVNFSPDGQLIATASEDKTVKLWNRDGELLKTLPRQSSVVNSAVFSPDGKLIATAGWDKTVKIWSIDGRLQKTLTGHTSGINSVTFSPDGKLIASASWDNTVKIWNLDGKELRTLRGHKNVVHNVTFSPDGKLIATASGDNTVKIWNINGQELRTLRGYKDAVWSLRFSLDGKTLATGSRYDIVVWHLYLDDLDQLLVRGCDWARDYLQNNPNVNPDEKSLCDGIRPIAQQ | failed
